Assay results reported in FireProtDB (doi:10.1021/bi960052u).

Details: Equus caballus, pH 7, 10 °C, GdnHCl, Fluorescence, Sodium phosphate 0.1 M

Cytochrome c L95A, P00004, sequence (P00004 whole entry L95A): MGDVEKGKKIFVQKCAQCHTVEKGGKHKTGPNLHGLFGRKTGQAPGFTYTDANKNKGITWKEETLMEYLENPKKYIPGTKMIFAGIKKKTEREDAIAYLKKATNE
Cytochrome c L95I, P00004, sequence (P00004 whole entry L95I): as the sequence (P00004 whole entry L95A) above, with A95I counted along it
Cytochrome c wild type, P00004, sequence (P00004 whole entry): as the sequence (P00004 whole entry L95A) above, with A95L counted along it
Cytochrome c L95V, P00004, sequence (P00004 whole entry L95V): as the sequence (P00004 whole entry L95A) above, with A95V counted along it

Row | Substance | ddG of mutation (higher = less stable) (structure 1AKK) [kJ/mol] | denaturant m value (structure 1AKK) [kcal/mol/M] | denaturant midpoint (higher = more stable) (structure 1AKK) [M] | unfolding free energy (structure 1AKK) [kJ/mol] | denaturant m value [kcal/mol/M] | denaturant midpoint (higher = more stable) [M] | unfolding free energy [kJ/mol]
1 | Cytochrome c L95A, P00004 | 14.6 | 3.7 | 1.67 | 25.9 | – | – | –
2 | Cytochrome c L95I, P00004 | -0.837 | 4 | 2.47 | 41.4 | – | – | –
3 | Cytochrome c L95V, P00004 | 3.35 | 3.6 | 2.47 | 37.2 | – | – | –
4 | Cytochrome c wild type, P00004 | – | – | – | – | 3.5 | 2.77 | 40.6
